# Biological target: elav1_human ELAVL1 (UniProt Q15717)
substance,measurement,value
Polyubiquitin-C (Homo sapiens) (from UniProt P0CG48) K48R,effect of a mutation on the interaction,disrupting interaction

# — IntAct's records for PubMed 19322201
